Assay results taken from article PMC10403280.
pKd: −log10 of the molar value.

Legend:
[1] = target: affibody ZpA963; experiment: SPR; BIAcore T100; about 100 RU of biotinylated affibody captured on a streptavidin (SA) chip, the partner flowed over in two-fold dilutions; HBS-P+; 1:1 binding model or steady-state affinity model; which partner was captured is not told
[2] = target: affibody Z_(SPA-1); experiment: as above
[3] = target: affibody ZpA963, second protein (Z-B) of the yeast-displayed single chain; experiment: on-yeast cleavage-capture assay; conditions: 60 min after 3C protease cleavage; parent: est. 63; read off a plot
[4] = target: Z domain of staphylococcal protein A, displayed on yeast (first protein, Z-A); experiment: flow cytometry on cells; on-yeast cleavage-capture assay, test of fluorescently labelled anti-HA antibodies of different valency (Fab, IgG mAb, Fab+streptavidin complex); staining after 3C cleavage as % of uncleaved cells
[5] = target: Z domain of staphylococcal protein A, displayed on yeast (first protein, Z-A); experiment: flow cytometry on cells; on-yeast cleavage-capture assay: Aga2-cMyc-ZA-linker (3C site)-ZB-HA on S. cerevisiae EBY100, stained with Alexa Fluor 488 anti-cMyc and Alexa Fluor 647 anti-HA antibody, cut with 3C protease (0.4 mg/mL in MACS buffer, 4°C); HA-tag MFI as % of the MFI before cleavage
[6] = target: Z domain of staphylococcal protein A, displayed on yeast (first protein, Z-A); experiment: on-yeast cleavage-capture assay; conditions: 60 min after 3C protease cleavage; parent: est. 63; read off a plot

Z domain of staphylococcal protein A (domain or fragment)
pKd [1]: 8.00
pKd [2]: 5.53

Z domain of staphylococcal protein A, displayed on yeast (first protein, Z-A) L17I
response [3]: 66 % max.

affibody ZpA963, second protein (Z-B) of the yeast-displayed single chain (designed binder)
% of the staining of uncleaved cells kept after 3C cleavage (anti-HA Fab+SA complex) [4]: 69.9%
% of the staining of uncleaved cells kept after 3C cleavage (anti-HA IgG mAb) [4]: 45.8%
% of HA-tag fluorescence kept after an hour of 3C protease cleavage [5]: 68.7%

affibody ZpA963, second protein (Z-B) of the yeast-displayed single chain I31V
response [6]: 30 % max.

affibody ZpA963, second protein (Z-B) of the yeast-displayed single chain L35I
response [6]: 26 % max.
